# Assay results published in patent US20050025760A1 (KEIO UNIVERSITY, published 2005).
# T1: recombinant protein human Dsg1-His (human, UniProt Q02413 50-548)
# T1 construct: extracellular domain; Baculovirus product; not shown: C-terminal His tag
# T1 sequence (looked up): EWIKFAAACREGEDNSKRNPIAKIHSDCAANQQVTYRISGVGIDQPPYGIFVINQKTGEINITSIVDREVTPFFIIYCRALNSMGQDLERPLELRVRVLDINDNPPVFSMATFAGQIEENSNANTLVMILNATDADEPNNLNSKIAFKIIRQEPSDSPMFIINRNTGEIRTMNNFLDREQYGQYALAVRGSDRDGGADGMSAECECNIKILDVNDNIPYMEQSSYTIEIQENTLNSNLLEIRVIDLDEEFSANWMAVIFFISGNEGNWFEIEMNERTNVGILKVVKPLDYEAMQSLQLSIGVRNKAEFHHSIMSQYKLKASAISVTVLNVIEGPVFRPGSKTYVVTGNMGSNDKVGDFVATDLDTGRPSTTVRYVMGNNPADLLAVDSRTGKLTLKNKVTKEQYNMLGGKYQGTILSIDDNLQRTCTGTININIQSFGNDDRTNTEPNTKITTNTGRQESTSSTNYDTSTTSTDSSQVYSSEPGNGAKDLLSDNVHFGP
# T2: recombinant protein mouse Dsg1-His (mouse, UniProt Q61495 50-564, limits assumed)
# T2 construct: not shown: His tag
# T2 sequence (looked up): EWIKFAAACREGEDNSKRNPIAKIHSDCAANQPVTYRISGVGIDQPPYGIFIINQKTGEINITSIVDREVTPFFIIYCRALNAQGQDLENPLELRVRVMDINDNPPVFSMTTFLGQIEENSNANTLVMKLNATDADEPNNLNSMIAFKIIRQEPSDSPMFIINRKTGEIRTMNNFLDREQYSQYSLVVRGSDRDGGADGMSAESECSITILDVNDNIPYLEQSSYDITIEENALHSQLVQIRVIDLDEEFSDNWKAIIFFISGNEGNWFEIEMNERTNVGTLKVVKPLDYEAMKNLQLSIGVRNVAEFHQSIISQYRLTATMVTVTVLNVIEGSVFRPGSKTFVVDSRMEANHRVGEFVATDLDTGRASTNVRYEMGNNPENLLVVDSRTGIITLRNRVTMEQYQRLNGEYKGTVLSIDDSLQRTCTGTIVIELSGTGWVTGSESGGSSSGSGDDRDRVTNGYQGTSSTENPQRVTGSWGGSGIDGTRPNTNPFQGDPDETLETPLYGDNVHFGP
# T3: recombinant protein human Dsg3-His (human, UniProt P32926 50-615)
# T3 construct: extracellular domain; Baculovirus product; also called recombinant human Dsg3; not shown: C-terminal His tag
# T3 sequence (looked up): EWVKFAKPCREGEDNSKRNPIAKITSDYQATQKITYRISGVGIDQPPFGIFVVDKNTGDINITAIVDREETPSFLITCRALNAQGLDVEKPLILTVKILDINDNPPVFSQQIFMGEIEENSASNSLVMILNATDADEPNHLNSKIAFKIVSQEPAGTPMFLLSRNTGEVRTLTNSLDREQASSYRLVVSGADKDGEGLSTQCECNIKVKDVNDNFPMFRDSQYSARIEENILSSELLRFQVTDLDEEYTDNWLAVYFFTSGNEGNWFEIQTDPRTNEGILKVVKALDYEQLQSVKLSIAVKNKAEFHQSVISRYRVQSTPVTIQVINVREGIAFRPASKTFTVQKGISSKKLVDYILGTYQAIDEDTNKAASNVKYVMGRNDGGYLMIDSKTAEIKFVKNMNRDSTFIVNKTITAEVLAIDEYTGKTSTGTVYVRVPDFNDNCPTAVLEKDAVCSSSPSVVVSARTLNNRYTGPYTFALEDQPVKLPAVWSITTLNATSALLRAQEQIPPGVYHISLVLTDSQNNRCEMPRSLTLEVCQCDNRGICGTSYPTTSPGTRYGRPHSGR
# Key:
# [1] = target: T1, recombinant protein human Dsg1-His; assay: ELISA on recombinant human Dsg1-His
# Text: (§1) The baculovirus vectors, pEVmod-Dsg3-His and pEVmod-Dsg1-His, pEVmod-mouse Dsg3-His and pEVmod-mouse Dsg1 -His, that were constructed according to the method as described previously (J. Immunol. 159, 2010-2017, 1997) were used. These recombinant baculoviruses were infected to insect cells, High Five (Invitrogen Corporation), then the recombinant protein human Dsg3-His and Dsg1-His, recombinant protein mouse Dsg3-His and Dsg1-His were collected from the culture media, respectively. In addition, purification of these recombinant proteins was conducted using Ni-NTA column. These purified recombinant proteins were coated on ELISA (Enzyme Linked Immunosorbent Assay) plates, respectively, 50 μl each of the culture supernatant of the anti-Dsg3 monoclonal antibody-producing hybridoma was added to each well, and ELISA was practiced according to the method as previously described (J Clin Invest 105, 625-631, 2000). PV mouse model 1 serum with moderate degree of antibody titer was selected as a positive control, and 1 serum of normal mouse serum was selected as a negative control. Absorbance was determined at wavelength 450 nm (Bio-rad, Hercules, Calif. USA), and the index was shown by the following formula. Index={OD(specimen)−OD(negative control)}/{OD(positive control)−OD(negative control)}×100 A-2 (Living Cell Staining using Culture Mouse Keratinocyte PAM 212)
# [2] = target: T2, recombinant protein mouse Dsg1-His; assay: ELISA on recombinant mouse Dsg1-His
# Text: as §1
# [3] = target: T3, recombinant protein human Dsg3-His; assay: ELISA on recombinant human Dsg3-His
# Text: as §1
binder,measurement,setting,value
"anti-Dsg3 monoclonal antibody AK23 (antibody, mouse IgG1, V domains shown, Mouse IgG1 kappa hybridoma antibody) VH: QVQLQQSGTELVKPGASVKLSCKSSGYTFTSYWINWVKQRPGQGLEWIGNINPSNGGINYNEKFKSKATLTVDKSSSTAYMQLKSLTSEDSAVYYCARGGYDGYPWGQGTTVTVS VL: DIQMTQSPKFLLVSAGDRVTITCKASQSVSYDVAWYQQKPGQSPKLLISYASNRYTGVPDRFTGSGYGSDFTFTISTVQTEDLAVYFCQQDYSSPWTFGGGTKLELKR",binding result,[1],no binding
same,binding result,[2],no binding
same,binding result,[3],binds
